What was measured:
hIGF-1R(1-462)-Fc = target: T1, hIGF-1R(1-462)-Fc (Homo sapiens, UniProt P08069); assay: SPR binding of immobilized antibodies to truncated hIGF-1R(1-462)-Fc versus hIGF-1R(1-903)Fc; details: surface immobilized antibody
T1 construct: host or cells: CHO
Excerpt: Next, we investigated whether M13-C06 binds the putative ligand binding domains of IGF-1R (L1-CR-L2). We generated a truncated version of the receptor containing the N-terminal three domains (residues 1-462) fused to an IgG1-Fc and compared its ability to bind M13-C06, M14-C03, and M14-G11 to that of the full-length receptor ectodomain construct, hIGF-1R-Fc, using surface plasmon resonance (SPR).

hIGF-1R-Fc [1] = target: T2, hIGF-1R-Fc (Homo sapiens, UniProt P08069); assay: IGF-1 and IGF-2 blocking ELISA-based competition assay; format: binding
T2 construct: (3) human IGF-1R(1-903)-Fc (hIGF-1R-Fc, Biogen Idec); host or cells: CHO
Protocol: hIGF-1R-Fc was biotinylated using EZ-Link Sulfo-NHS-LC-Biotin according to the protocol provided by the manufacturer (Pierce Cat. No. 21335). Biotinylated human IGF-1R-Fc at 5 μg/ml was added to the wells of SigmaScreen streptavidin-coated 96-well plates (Sigma, Cat. No. M5432-5EA; Sigma-Aldrich Corp. (St. Louis, Mo., USA)) at 100 μL/well and incubated overnight at 2-8° C. The plates were then washed four times with 200 μL/well PBST. […] Dilutions were made from 1.3 μM to 10 pM for M13-C06 and M14-C03, from 5.2 μM to […] for M14-G11, and from 2.6 μM to 10 pM for both P1E2 and αIR3. Human IGF-2 His was prepared at 320 nM in PBST, 1.0 mg/ml BSA. The antibodies were serial diluted (from […] to 5 pM for M13-C06 and M14-C03, from 5.2 μM to 5 pM for M14-G11 and αIR3, and from 5.2 μM to 20 pM for P1E2) using a solution of 320 nM IGF-2 His. The dilutions were added to the plates in duplicate at 100 μL/well and the plates were incubated at RT for 1 hour. The plates were then washed four times with 200 μL/well PBST. An HRP-conjugated anti-Histag antibody (Penta-His HRP Conjugate, QIAGEN, Cat. No. 1014992) was diluted 1:1000 in PBST and added to plates at 100 μL/well, and the plates were incubated at RT for one hour. […] The absorbance of each well was determined at 450 nm, and the results were normalized and plotted against the log of antibody concentration.

hIGF-1R-Fc [2] = target: T2, hIGF-1R-Fc; assay: Antibody cross-blocking ELISA with biotinylated M13-C06 or M14-G11; format: binding
Protocol: The ability of various antibodies to block M13-C06 or M14-G11 was determined using biotinylated version of both antibodies and hIGF-1R-Fc. Briefly, 50 μL of 2 μg/mL hIGF-1R-Fc in 1×PBS were coated per well of a 96-well clear MaxiSorp plate (Nunc) for 2 hours at room temperature (RT, no shaking). Plates were washed with 1×PBS and blocked overnight at 2-8° C. using a PBS/1% BSA solution. Plates were washed and incubated with a 100 μL mixture of biotinylated M13-C06 or biotinylated M14-G11 (80 ng/mL) and inhibitor antibody for 1 hour at RT. Inhibitor antibodies were serially diluted (5-fold dilutions) from 40 μg/mL to 3 ng/mL. M13-C06 and M14-G11 were biotinylated using EZ-Link Sulfo-NHS-LC-Biotin according to protocol provided by the manufacturer (Pierce Cat. No. 21335). A control was also performed by serial dilution of a non-IGF-1R specific IgG4 isotype control antibody with biotinylated M13-C06 or biotinylated M14-G11. Plates were washed and shaken for 1 hour at RT with 100 μL/well streptavidin-HRP (1:4000 dilution into blocking buffer, Southern Biotech Cat. No. 7100-05). Plates were washed and 100 μL/well SureBlue Reserve TMB Microwell Peroxidase Substrate (KPL, Cat. No. 53-00-01) was added to the wells. Detection of the presence of biotinylated M13-C06 or M14-G11 was performed by reading the absorbance at 650 nm every 5 minutes using a Wallac 1420-041 Multilabel Counter plate reader.

[3] = target: T3, human IGF-1R(1-902)-His10 (Homo sapiens, UniProt P08069); assay: SPR, receptor ectodomain injected over immobilized antibodies: hIGF-1R-His10; format: binding; details: full-length fully human antibodies; even at the lowest concentration
T3 construct: human IGF-1R(1-902)-His10 (hIGF-1R-His10 (R&D systems)); purchased R&D systems 305-GR-050
Protocol: SPR analyses were performed using a Biacore3000. The instrument was set to 25° C. and assays performed with running buffer HBS-EP pH 7.2 purchased from Biacore (Biacore, Cat. No. BR-1001-88). The fully human antibodies, M13-C06, M14-C03, and M14-G11 were immobilized to ˜10,000 RU on Biacore CM5 Research Grade Sensor Chip surfaces using the standard NHS/EDC-amine reactive chemistry according to protocols supplied by Biacore. For immobilization, the antibodies were diluted to 40 μg/mL in a 10 mM Acetate pH 4.0 buffer. To investigate the relative kinetics of association and dissociation of the full-length ectodomains of human IGF-1R(1-902)-His10 (hIGF-1R-His10 (R&D systems)) and human INSR(28-956)-His10 (INSR (R&D systems)) to each of the human antibodies, increasing concentrations of hIGF-1R-His10 or INSR were injected over the sensorchip surfaces. The hIGF-1R-His10 concentration series ranged from 1.0 nM to 250 nM while the INSR concentrations ranged from 1.0 nM to 2 μM. All antibody surfaces were reliably regenerated with 100 mM Glycine, pH 2.0. […] Flow rates were 20 μl/min. (“His10” denotes a 10-residue histidine tag on the C-terminus of the constructs.)

B1: M14-C03: anti-IGF-1R antibody, allosteric blocker of IGF-1 and IGF-2 (antibody, V domains shown)
VH: EVQLLESGGGLVQPGGSLRLSCAASGFTFSKYMMSWVRQAPGKGLEWVSYISPSGGLTWYADSVKGRFTISRDNSKNTLYLQMNSLRAEDTAVYYCARDGARGYGMDVWGQGTTVTVSS
VL: DIQMTQSPATLSLSPGERATLSCRASQSVSSYLAWYQQKPGQAPRLLIYDASNRATGIPARFSGSGSGTDFTLTISSLEPEDFAVYYCQQRSNWPPEVTFGPGTKVDIK
modifications: Antibody variable heavy chain sequence; Antibody variable light chain sequence
- binding to truncated hIGF-1R(1-462)-Fc compared with full-length hIGF-1R-Fc (hIGF-1R(1-462)-Fc): dramatically reduced
- blocking of IGF-1 binding to IGF-1R (hIGF-1R-Fc [1]; 320 nM IGF-1 His): block both IGF-1 and IGF-2 binding to IGF-1R
- blocking of IGF-2 binding to IGF-1R (hIGF-1R-Fc [1]; 320 nM IGF-2 His): block both IGF-1 and IGF-2 binding to IGF-1R
- M13-C06 cross-blocking (hIGF-1R-Fc [2]): +++++ (+++++ = antibody binding competition relative to itself (90-100%))
- binding of hIGF-1R-His10 to immobilized antibody surface [3]: demonstrated binding
